According to US8637040B2, “Genus-wide chlamydial peptide vaccine antigens” (priority 2008, dated 2014):

Columns and labels:
[1] = Encapsulation of Pep4 in PLGA nanoparticles and peptide release; assay type: physicochemical; conditions: carbonate buffer, ELISA with anti-Pep4 antiserum standard curve
Protocol: One preferred approach to the preparation of peptide-loaded polylactide (PLA) or PLGA micro- and/or nanoparticles follows. Biodegradable PLA or PLGA nanoparticles (NPs) loaded with the selected peptides is prepared using a modified version of the double emulsion solvent evaporation technique, in a procedure similar to that previously described by Li and co-workers (139). […] Briefly, an aqueous solution of the peptide is emulsified in dichloromethane containing the PLGA (using an ultrasonic homogenizer), thus forming the primary water-in-oil (w/o) emulsion. The prepared w/o emulsion is then emulsified in a second aqueous phase containing polyvinyl alcohol (PVA) as stabilizer, thus resulting in the multiple w/o/w emulsion. The double emulsion is later added into a large volume of aqueous solution of PVA, and stirred for several hours to evaporate the organic solvent. The resulting nanoparticles are then collected by centrifugation and washed (removing PVA) several times before lyophilization to remove the remaining water (139,140). The powder is kept at −80° C. until use. […] Optimal peptide loading concentrations for protective immunization are determined empirically, e.g., by comparing orally delivered peptide-NP to free peptide delivered subcutaneously. […]

chlamydia = assay: Gross anatomical observation of genital tract inflammation after challenge; assay type: in vivo, mouse; conditions: female mice primed and boosted twice SC, necropsy ~28 days post-challenge, vs adjuvant-only control
Text: FIG. 15A-15C is a set of three photographs showing the gross morphology of tissues of the female reproductive tract of mice immunized and then challenged 28 days earlier with Pep4 or Pep7. Mice had been primed and boosted twice SC, as above, and were challenged with chlamydia 2 weeks later, rechallenged and sacrificed 4 weeks after re-challenge. Inflamed genital tracts outlined in dashed lines.
Genital tracts were exposed at necropsy ˜28 days post-challenge to score inflammatory changes (and then removed for histological analysis). […] Representative examples for recipients of Peptides 4 and 7 are shown in the center and right panels, respectively. Yellow arrows point to uterine horns (which are further demarcated with dashed lines). It is evident that the peptide immunogens reduced the gross pathology of the genital tract even weeks after challenge. This has been reproduced in a second experiment in which control mice received an irrelevant peptide instead of Peptides 4 or 7. Based on what is known in the art from other contexts, the histopathological results are expected to be consistent with these gross anatomical observations.

For AFPQFRSATLLL [Pep4], the release of peptide [1] was “about 3.8 μg/ml/day” and the “gross inflammation / pathology of the genital tract” value (chlamydia) was “not nearly as inflamed”.
